Experimental findings from patent US20150011421 are described below.

Series [1] concerns H2N-(CH2)4-CO-(SEQ ID NO:1)-NH-CH2-Fc.
In series [2] the test system is H2N-(CH2)4-CO-(SEQ ID NO:2)-NH-CH2-Fc.
The test system of series [3] is H2N-(CH2)4-CO-(SEQ ID NO:5)-NH-CH2-Fc.
In series [4] the test system is T1, Biotin-AEEEIYGEFEAKKKKC (SEQ ID NO:4).
T1 sequence: AEEEIYGEFEAKKKKC

Series [5] has as its target T2, H2N-(CH2)4-CO-(SEQ ID NO:1)-NH-CH2-Fc.
T2 chain: AANL

Series [6] deals with T3, Z-Ala-Ala-Asn-AMC.
T3 chain: AAN

The target of series [7] is T4, Biotin-AEEEIYGEFEAKKKKC (SEQ ID NO:4), fully phosphorylated by c-Src kinase.
T4 chain: AEEEIYGEFEAKKKKC

For “Purified recombinant human cathepsin B (R&D Systems), activated in 5 mM DTT and 25 mM MES buffer (pH 5.0)”, the “ACV peak current after adding activated cathepsin B (negative control)” value in series [1] is “The peak current ip,acv of these two tetrapeptides did not show the characteristic exponential decay while the activated cathepsin B was added”. Also, the “cleavage product by HPLC/MS after 2 h incubation in solution” value in series [2] is listed as “The cleavage product, Phe-Gly-NH-CH2-Fc appeared at 37 min, was found confirming that the proteolysis took place at the arginine site”. Also, the “ACV peak current after adding activated cathepsin B (negative control, P1 Arg replaced by Asn)” value in series [3] is “The peak current ip,acv of these two tetrapeptides did not show the characteristic exponential decay while the activated cathepsin B was added”.

With “Active c-Src kinase protein (N-terminal 6His-tagged recombinant human c-Src, molecular weight 61.7 kDa)”, in series [4], the “phosphorylation of the immobilized peptide” value is “The peptide at the VACNF NEA was fully phosphorylated with 1-hour further incubation in c-Src kinase solution”.

B1: Recombinant human legumain/asparaginyl endopeptidase (R&D Systems), activated in 50 mM CH3COONa (pH 4.0) and 100 mM NaCl (protein)
chain: VPIDDPEDGGKHWVVIVAGSNGWYNYRHQADACHAYQIIHRNGIPDEQIVVMMYDDIAYSEDNPTPGIVINRPNGTDVYQGVPKDYTGEDVTPQNFLAVLRGDAEAVKGIGSGKVLKSGPQDHVFIYFTDHGSTGILVFPNEDLHVKDLNETIHYMYKHKMYRKMVFYIEACESGSMMNHLPDNINVYATTAANPRESSYACYYDEKRSTYLGDWYSVNWMEDSDVEDLTKETLHKQYHLVKSHTNTSHVMQYGNKTISTMKVMQFQGMKRKASSPVPLPPVTHLDLTPSPDVPLTIMKRKLMNTN
Regarding B1, in series [5], the “(kcat/Km)[E0], slope of reaction rate vs. surface adsorbed Fc, [E0]=773 nM” value is given as “a slope of 6.32×10^-4 s^-1”; the “(kcat/Km)[E0], slope of vi vs. Γsurf, [E0]=80.1 nM” value was “the slope of 6.30×10^-4 s^-1 at [E0]=80.1 nM”; the specificity constant kcat/KM (electrochemistry, EC, VACNF NEAs) was 11300 M⁻¹ s⁻¹; the “specificity constant kcat/Km (ACV on VACNF NEA), as given in the summary of Example 1” value came to 8200 M⁻¹ s⁻¹. Also, in series [5], the “specificity constant kcat/Km (ACV, single experiment at 80.1 nM)” value was determined as 7900 M⁻¹ s⁻¹; the “time constant in the fit of surface adsorbed Fc vs. time” value is on record as “the time constant is 1101 s (~48 min)”; the “time constant of the exponential decay of the ACV peak current after adding legumain” value is “The time constant is 1076 s (~18 min.)”. Besides, the specificity constant kcat/KM (fluorescence assay, FL) in series [6] turned out to be 4300 M⁻¹ s⁻¹.

B2: PTP1B (residues 1-322, molecular weight 37.4 kDa) (protein)
chain: MEMEKEFEQIDKSGSWAAIYQDIRHEASDFPCRVAKLPKNKNRNRYRDVSPFDHSRIKLHQEDNDYINASLIKMEEAQRSYILTQGPLPNTCGHFWEMVWEQKSRGVVMLNRVMEKGSLKCAQYWPQKEEKEMIFEDTNLKLTLISEDIKSYYTVRQLELENLTTQETREILHFHYTTWPDFGVPESPASFLNFLFKVRESGSLSPEHGPVVVHCSAGIGRSGTFCLADTCLLLMDKRKDPSSVDIKKVLLEMRKFRMGLIQTADQLRFSYLAVIEGAKFIMGDSSVQDQWKELSHEDLEPPPEHIPPPPRPPKRILEPHNG
In the case of B2, in series [7], the “(kcat/Km)[E0], slope of -d(|Z|/|Z0|)/dt vs. |Z|/|Z0|, [E0]=2.4 nM” value is recorded as “a slope of 0.0522 s^-1”; the “decrease in |Z| (REIS) over ~100 s after adding 2.4 nM PTP1B” value was “A sharp decrease in |Z| by ~1,150Ω (~6.3%)”; the “decrease in |Z| (REIS) over ~100 s after adding 2.4 nM PTP1B, percent” value is given as “A sharp decrease in |Z| by ~1,150Ω (~6.3%)”; the “specificity constant kcat/Km (REIS, 2.4 nM PTP1B)” value came out at 2.2e+07 M⁻¹ s⁻¹. Also, in series [7], the “specificity constant kcat/Km (REIS, average of 7 data sets at three PTP1B concentrations)” value is “an average value of 2.1×10^7 M^-1 s^-1 and a standard deviation of 1.0×10^6 M^-1 s^-1”.
